Measured values reported in publication PMC11233663, “ZBP1 condensate formation synergizes Z-NAs recognition and signal transduction” (Cell Death & Disease, 2024).

Experiments:
Thioflavin T (ThT) = assay: ThT binding assay (ThT fluorescence emission spectrum); conditions: read off a plot
[1] = target: human ZBP1-Zαβ (residues 1-166) (human) (UniProt Q9H171); assay: SAXS; ZBP1-Zαβ at 5 mg/mL, 20 mM Tris-HCl pH 7.4, 100 mM NaCl
[2] = target: human ZBP1-Zαβ (residues 1-166) (human) (UniProt Q9H171); assay: dynamic light scattering; ZBP1-Zαβ at 5 mg/mL (high concentration), 20 mM Tris-HCl pH 7.4, 100 mM NaCl, room temperature
[3] = target: the molecule itself; assay: negative-staining electron microscopy; purified proteins on carbon films, 0.2% uranyl acetate
[4] = target: the molecule itself; assay: SEC; Superdex 200 10/300, 20 mM Tris-HCl, 1 M NaCl, pH 7.5; elution at the void position
mCherry-ZBP1-Zαβ = target: T1, mCherry-ZBP1-Zαβ (Homo sapiens, UniProt Q9H171 1-166); assay: in vitro co-condensation (microscopy); Z-RNA promotes condensates; EMSA: protein 0, 5, 10, 20 nM with 10 nM dsDNA, on ice 1 h, 6% polyacrylamide; protein and DNA stocks in 20 mM Tris-HCl pH 7.4, 100 mM NaCl; conditions: protein: recombinant; tags: mCherry fusion; label: 5'-FAM
T1 sequence: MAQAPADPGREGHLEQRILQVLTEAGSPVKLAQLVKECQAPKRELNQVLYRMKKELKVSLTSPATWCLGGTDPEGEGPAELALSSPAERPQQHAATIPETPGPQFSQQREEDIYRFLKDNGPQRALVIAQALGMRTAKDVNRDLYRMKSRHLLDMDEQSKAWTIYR

Molecule: ZBP1-RHIM1 (residues 168-224) (from UniProt Q9H171) I206A; Q207A; I208A; G209A
- response (Thioflavin T (ThT); parent: est. 1900): 1200

Molecule: human ZBP1-Zαβ (residues 1-166) (from UniProt Q9H171 1-166) (domain or fragment)
- stoichiometry N [1]: 2
- stoichiometry N [2]: 2

Molecule: ZBP1-RHIM 1 + 2 (residues 168-280) (from UniProt Q9H171) I206A; Q207A; I208A; G209A
- response (Thioflavin T (ThT); parent: est. 2300): 880

B1: ZBP1-RHIM1 + 2 AAAA (domain or fragment, human, UniProt Q9H171 168-280, looked up)
chain: EDSGRRAKSASIIYQHNPINMICQNGPNSWISIANSEAAAAAHGNIITRQTVSREDGSAGPRHLPSMAPGDSSTWGTLVDPWGPQDIHMEQSILRRVQLGHSNEMRLHGVPSE
notes: also called 4 A mutant of RHIM 1 + 2; 4 A; source: E. coli BL21 Codonplus (DE3)-RIPL, purified (Ni-NTA, Superdex 200 10/300)
- binding result [3]: binds

B2: ZBP1-RHIM 1 + 2 (residues 168-280) (domain or fragment, human, UniProt Q9H171 168-280, looked up)
chain: EDSGRRAKSASIIYQHNPINMICQNGPNSWISIANSEAIQIGHGNIITRQTVSREDGSAGPRHLPSMAPGDSSTWGTLVDPWGPQDIHMEQSILRRVQLGHSNEMRLHGVPSE
notes: the tag is inferred from the purification; also called RHIM 1 + 2 high-oligomer seed; source: E. coli BL21 Codonplus (DE3)-RIPL, purified (Ni-NTA, Superdex 200 10/300)
- binding result [4]: binds

B3: ZBP1-RHIM1 AAAA (domain or fragment, human, UniProt Q9H171 168-224, looked up)
chain: EDSGRRAKSASIIYQHNPINMICQNGPNSWISIANSEAAAAAHGNIITRQTVSREDG
notes: also called 4 A mutant of ZBP1-RHIM 1; 4 A; source: E. coli BL21 Codonplus (DE3)-RIPL, purified (Ni-NTA, Superdex 200 10/300)
- binding result [3]: binds

B4: ZBP1-RHIM1 (residues 168-224) (domain or fragment, human, UniProt Q9H171 168-224, looked up)
chain: EDSGRRAKSASIIYQHNPINMICQNGPNSWISIANSEAIQIGHGNIITRQTVSREDG
notes: the tag is inferred from the purification; source: E. coli BL21 Codonplus (DE3)-RIPL, purified (Ni-NTA, Superdex 200 10/300)
- binding result [4]: binds

Molecule: ACGCGCGCGCGUUUUUGCGCGCGCGC (structured_RNA, 2'-O-methyl-8-methylguanosine (m8Gm), positions not given) [Z-RNA]
- binding result (mCherry-ZBP1-Zαβ): binds
